According to patent US20250177432A1, “RNA MOLECULES AND COMPOSITIONS FOR CANCER IMMUNOTHERAPY” (WUHAN HOUXIAN BIOPHARMACEUTICAL CO. LTD., priority 2023, published 2025):
“Also recorded” adds a separate entry of the source.

B1: MLKL: mRNA encoding MLKL (mixed lineage kinase domain like pseudokinase) or its four-helix bundle domain (nucleic acid)
chain: AUGGAAAAUUUGAAGCAUAUUAUCACCCUUGGCCAGGUCAUCCACAAACGGUGUGAAGAGAUGAAAUACUGCAAGAAACAGUGCCGGCGCCUGGGCCACCGCGUCCUCGGCCUGAUCAAGCCUCUGGAGAUGCUCCAGGACCAAGGAAAGAGGAGCGUGCCCUCUGAGAAGUUAACCACAGCCAUGAACCGCUUCAAGGCUGCCCUGGAGGAGGCUAAUGGGGAGAUAGAAAAGUUCAGCAAUAGAUCCAAUAUCUGCAGGUUUCUAACAGCAAGCCAGGACAAAAUACUCUUCAAGGACGUGAACAGGAAGCUGAGUGAUGUCUGGAAGGAGCUCUCGCUGUUACUUCAGGUUGAGCAACGCAUGCCUGUUUCACCCAUAAGCCAAGGAGCGUCCUGGGCACAGGAAGAUCAGCAGGAUGCAGACGAAGACAGGCGAGCUUUCCAGAUGCUAAGAAGAGAUAAUGAAAAAAUAGAAGCUUCACUGAGACGAUUAGAAAUCAACAUGAAAGAAAUCAAGGAAACUUUGAGGCAGUAUUUACCACCAAAAUGCAUGCAGGAGAUCCCGCAAGAGCAAAUCAAGGAGAUCAAGAAGGAGCAGCUUUCAGGAUCCCCGUGGAUUCUGCUAAGGGAAAAUGAAGUCAGCACACUUUAUAAAGGAGAAUACCACAGAGCUCCAGUGGCCAUAAAAGUAUUCAAAAAACUCCAGGCUGGCAGCAUUGCAAUAGUGAGGCAGACUUUCAAUAAGGAGAUCAAAACCAUGAAGAAAUUCGAAUCUCCCAACAUCCUGCGUAUAUUUGGGAUUUGCAUUGAUGAAACAGUGACUCCGCCUCAAUUCUCCAUUGUCAUGGAGUACUGUGAACUCGGGACCCUGAGGGAGCUGUUGGAUAGGGAAAAAGACCUCACACUUGGCAAGCGCAUGGUCCUAGUCCUGGGGGCAGCCCGAGGCCUAUACCGGCUACACCAUUCAGAAGCACCUGAACUCCACGGAAAAAUCAGAAGCUCAAACUUCCUGGUAACUCAAGGCUACCAAGUGAAGCUUGCAGGAUUUGAGUUGAGGAAAACACAGACUUCCAUGAGUUUGGGAACUACGAGAGAAAAGACAGACAGAGUCAAAUCUACAGCAUAUCUCUCACCUCAGGAACUGGAAGAUGUAUUUUAUCAAUAUGAUGUAAAGUCUGAAAUAUACAGCUUUGGAAUCGUCCUCUGGGAAAUCGCCACUGGAGAUAUCCCGUUUCAAGGCUGUAAUUCUGAGAAGAUCCGCAAGCUGGUGGCUGUGAAGCGGCAGCAGGAGCCACUGGGUGAAGACUGCCCUUCAGAGCUGCGGGAGAUCAUUGAUGAGUGCCGGGCCCAUGAUCCCUCUGUGCGGCCCUCUGUGGAUGAAAUCUUAAAGAAACUCUCCACCUUUUCUAAGUAG
B2: FADD: mRNA encoding FADD (FAS-associated death domain protein) (nucleic acid)
chain: AUGGACCCGUUCCUGGUGCUGCUGCACUCGGUGUCGUCCAGCCUGUCGAGCAGCGAGCUGACCGAGCUCAAGUUCCUAUGCCUCGGGCGCGUGGGCAAGCGCAAGCUGGAGCGCGUGCAGAGCGGCCUAGACCUCUUCUCCAUGCUGCUGGAGCAGAACGACCUGGAGCCCGGGCACACCGAGCUCCUGCGCGAGCUGCUCGCCUCCCUGCGGCGCCACGACCUGCUGCGGCGCGUCGACGACUUCGAGGCGGGGGCGGCGGCCGGGGCCGCGCCUGGGGAAGAAGACCUGUGUGCAGCAUUUAACGUCAUAUGUGAUAAUGUGGGGAAAGAUUGGAGAAGGCUGGCUCGUCAGCUCAAAGUCUCAGACACCAAGAUCGACAGCAUCGAGGACAGAUACCCCCGCAACCUGACAGAGCGUGUGCGGGAGUCACUGAGAAUCUGGAAGAACACAGAGAAGGAGAACGCAACAGUGGCCCACCUGGUGGGGGCUCUCAGGUCCUGCCAGAUGAACCUGGUGGCUGACCUGGUACAAGAGGUUCAGCAGGCCCGUGACCUCCAGAACAGGAGUGGGGCCAUGUCCCCGAUGUCAUGGAACUCAGACGCAUCUACCUCCGAAGCGUCCUGA
B3: #10: codon-optimized OX40L mRNA, SEQ ID NO:31 (nucleic acid)
chain: AUGGAGCGGGUCCAGCCCCUGGAGGAGAACGUUGGCAACGCAGCGCGGCCCAGGUUCGAGAGGAACAAGCUGCUGCUGGUUGCCAGCGUGAUCCAGGGGCUGGGCCUGCUCCUGUGCUUCACCUACAUCUGCCUGCACUUCAGCGCACUGCAGGUGAGCCACAGGUAUCCCAGGAUACAGAGCAUCAAGGUGCAGUUCACCGAGUACAAGAAGGAGAAGGGCUUCAUCCUCACUUCCCAGAAGGAGGAUGAGAUCAUGAAGGUGCAGAACAACAGCGUGAUCAUCAACUGUGACGGCUUCUACCUGAUCAGCCUGAAGGGGUACUUCAGCCAGGAGGUGAACAUCAGCCUCCACUACCAGAAGGAUGAGGAGCCCCUGUUUCAGCUGAAGAAGGUGAGGUCCGUCAACAGUCUGAUGGUCGCGUCCUUGACCUACAAGGACAAGGUGUACCUGAACGUGACCACCGACAACACCAGCCUGGACGACUUCCAUGUGAACGGCGGUGAGCUGAUCUUGAUUCACCAGAACCCUGGUGAGUUCUGUGUCCUGUGA
B4: #8: codon-optimized OX40L mRNA, SEQ ID NO:29 (nucleic acid)
chain: AUGGAGAGGGUGCAGCCCCUGGAGGAGAACGUUGGCAACGCCGCGAGGCCCAGGUUCGAGCGCAACAAGCUCCUCCUGGUUGCCAGCGUGAUCCAGGGGCUGGGGCUGCUGUUGUGCUUUACAUACAUUUGUUUGCACUUCAGCGCCCUGCAGGUGUCACACAGGUACCCUCGUAUCCAGAGUAUUAAGGUGCAGUUCACCGAGUACAAGAAGGAGAAGGGCUUCAUCUUGACCUCCCAGAAGGAGGACGAGAUAAUGAAGGUCCAGAACAACUCCGUAAUCAUCAACUGUGACGGAUUUUACCUUAUCAGCUUGAAGGGGUACUUCUCCCAGGAGGUGAACAUCAGCCUCCACUACCAGAAGGACGAGGAGCCCCUUUUCCAGCUGAAGAAGGUGAGAUCCGUCAACAGUCUGAUGGUUGCGAGUCUGACCUACAAGGAUAAGGUGUACCUGAAUGUGACCACCGACAACACCUCUCUCGAUGACUUUCACGUGAACGGGGGCGAGCUGAUUCUGAUCCAUCAGAAUCCCGGCGAGUUCUGCGUUCUGUGA

Assays:
CT26 tumor cells = test: CT26 tumor model, IL-12/OX40L plus additional agent mRNA (Example 4); format: in vivo, mice; settings: 1.5 μg mRNA in total, days 9 and 12; for effect of adding the agent on the efficacy of the IL-12/OX40L combination: added agent fused to OX40L mRNA through IRES
Procedure: All of these agents were delivered, in various combinations, to the same animal model as used above, as mRNA (1.5 μg in total), on days 9 and 12, post-tumor cell implantation. While IL-12 and OX40L were encoded on different constructs, the added agent (e.g., FADD) was fused to the OX40L mRNA, through an IRES elements.
All the test agents were safe in the animals (FIG. 8).

[1] = Translation of codon optimized OX40L and IL-12 mRNA; format: cell-based; settings: FIG. 17
Description: Further, codon optimization was applied to the sequences of OX40L and IL-12 mRNA.

Molecule | anti-tumor effect of the added agent alone (CT26 tumor cells) | effect of adding the agent on the efficacy of the IL-12/OX40L combination (CT26 tumor cells) | translation level [1]
B1 | did not have observable anti-tumor effects | further increased the efficacy of the IL-12/OX12L combination; also recorded: greater than by GSDMD and TNFR | 
B2 | did not have observable anti-tumor effects | further increased the efficacy of the IL-12/OX12L combination; also recorded: greater than by GSDMD and TNFR | 
B3 |  |  | relatively lower translation level
B4 |  |  | relatively lower translation level
